# From publication PMC8346289 (Journal of medicinal chemistry, 2014)
# Biological target: the molecule itself
# Assay: crystal structure
protein,measurement,value
K47A mutant of human thymidylate synthase (enzyme) MPVAGSELPRRPLPPAAQERDAEPRPPHGELQYLGQIQHILRCGVRADDRTGTGTLSVFGMQARYSLRDEFPLLTTKRVFWKGVLEELLWFIKGSTNAKELSSKGVKIWDANGSRDFLDSLGFSTREEGDLGPVYGFQWRHFGAEYRDMESDYSGQGVDQLQRVIDTIKTNPDDRRIIMCAWNPRDLPLMALPPCHALCQFYVVNSELSCQLYQRSGDMGLGVPFNIASYALLTYMIAHITGLKPGDFIHTLGDAHIYLNHIEPLKIQLQREPRPFPKLRILRKVEKIDDFKAEDFQIEGYNPHPTIKMEMAV,binding result,binds
